Assay results published in PMC8042448 (The Journal of Biological Chemistry, 2021).

B1: C-terminally truncated human prion protein huPrP(23–144) (domain or fragment)
chain: KKRPKPGGWNTGGSRYPGQGSPGGNRYPPQGGGGWGQPHGGGWGQPHGGGWGQPHGGGWGQPHGGGWGQGGGTHSQWNKPSKPKTNMKHMAGAAAAGAVVGGLGGYMLGSAMSRPIIHFGSD
notes: also called N-terminal construct huPrP(23–144); huPrP(23–144)exc
B2: recombinant full-length human prion protein huPrP(23–230) (natural protein)
chain: not shown
notes: also called full-length huPrP

Legend:
Conditions in all cases: both partners purified
[1] = molecular target: T1, amyloid β (1–42) oligomers (UniProt P05067 672-713); assay: […]) in 30 mM Tris-HCl pH 7.4; […]
T1 construct: also called Aβ(1–42)_(oligo); Aβ_(oligo)

[2] = molecular target: T1, amyloid β (1–42) oligomers; assay: co-sedimentation
[3] = molecular target: T1, amyloid β (1–42) oligomers; assay: […] (40–80 μM) […] (160–300 μM) in 30 mM Tris-HCl pH 7.4; […]

Row | Binder | stoichiometry N [1] | stoichiometry N [2] | binding result [3]
1 | B1 | 8.6 | 3.7 | –
2 | B2 | – | – | binds
